Results as given in publication PMC3834829, “A signature motif mediating selective interactions of BCL11A with the NR2E/F subfamily of orphan nuclear receptors” (Nucleic Acids Research, 2013).
Where a chain is given by its changes, count along the chain named. Numbers in names are those of the source.

T1: LexA-COUP-TFII-LBD-(144–414) (UniProt P24468 144-414)
T1 construct: the bait copy of the LBD in the dimer assay; same residues as m19; also called wild-type COUP-TFII LBD; full-length LBD; source: yeast two-hybrid fusion (S. cerevisiae L40)
T1 sequence (looked up): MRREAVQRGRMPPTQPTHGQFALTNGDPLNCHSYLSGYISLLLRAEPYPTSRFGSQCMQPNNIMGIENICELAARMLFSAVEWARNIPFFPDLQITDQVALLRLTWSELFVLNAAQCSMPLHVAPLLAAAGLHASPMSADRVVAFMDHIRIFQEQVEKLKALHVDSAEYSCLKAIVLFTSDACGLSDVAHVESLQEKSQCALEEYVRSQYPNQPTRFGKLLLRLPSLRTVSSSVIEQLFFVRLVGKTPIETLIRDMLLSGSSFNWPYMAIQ

B1: AAD-EAR2-LBD-(121–399) (domain or fragment)
chain: MRKEAVQRGRIPHSLPGAVAASSGSPPGSALAAVASGGDLFPGQPVSELIAQLLRAEPYPAAAGRFGAGGGAAGAVLGIDNVCELAARLLFSTVEWARHAPFFPELPVADQVALLRLSWSELFVLNAAQAALPLHTAPLLAAAGLHAAPMAAERAVAFMDQVRAFQEQVDKLGRLQVDSAEYGCLKAIALFTPDACGLSDPAHVESLQEKAQVALTEYVRAQYPSQPQRFGRLLLRLPALRAVPASLISQLFFMRLVGKTPIETLIRDMLLSGSTFNWP
B2: AAD-COUP-TFII-LBD-(144–414) (domain or fragment)
chain: T1 sequence (looked up)
B3: AAD-COUP-TFII-LBD V224A (domain or fragment, UniProt P24468 144-414, looked up)
chain: T1 sequence (looked up) with V81A
notes: expressed at a 2-fold lower level than the other constructs of the series; also called V224A mutant; source: yeast two-hybrid fusion (S. cerevisiae L40)

These molecules were tested against AAD-LRH-1-LBD-(133–495) (UniProt O00482) (assay: yeast two-hybrid). Conditions: parent: est. 1100; read off a plot.
AAD-LRH-1-LBD-(133–495), sequence (O00482 133-495): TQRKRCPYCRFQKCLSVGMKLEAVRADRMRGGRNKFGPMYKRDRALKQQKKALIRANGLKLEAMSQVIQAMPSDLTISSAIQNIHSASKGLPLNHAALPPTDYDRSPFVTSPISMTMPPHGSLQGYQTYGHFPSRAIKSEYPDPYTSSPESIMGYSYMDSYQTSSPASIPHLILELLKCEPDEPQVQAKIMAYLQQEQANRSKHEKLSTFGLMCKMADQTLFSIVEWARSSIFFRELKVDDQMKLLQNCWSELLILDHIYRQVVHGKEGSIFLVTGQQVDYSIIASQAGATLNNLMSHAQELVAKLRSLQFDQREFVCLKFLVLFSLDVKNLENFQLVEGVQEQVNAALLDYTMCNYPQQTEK

| response | Molecule |
| --- | --- |
| 660 nmol/mg/min | LexA-NSD1-(790–818) D812A |
| 310 nmol/mg/min | LexA-NSD1-(790–818) F803A |
| 1300 nmol/mg/min | LexA-NSD1-(790–818) K802A |
| 710 nmol/mg/min | LexA-NSD1-(790–818) K811A |
| 0 nmol/mg/min | LexA-NSD1-(790–818) L806A |
| 470 nmol/mg/min | LexA-NSD1-(790–818) L807A |
| 0 nmol/mg/min | LexA-NSD1-(790–818) L810A |
| 900 nmol/mg/min | LexA-NSD1-(790–818) M808A |
| 0 nmol/mg/min | LexA-NSD1-(790–818) M809A |
| 0 nmol/mg/min | LexA-NSD1-(790–818) S804A |
| 690 nmol/mg/min | LexA-NSD1-(790–818) Y801A |

What follows are molecules tested against LexA-BCL11A RID1 F315A (UniProt Q9H165) (assay: two-hybrid; S. cerevisiae L40; LexA DBD fusion with VP16 AAD-NR fusion; β-galactosidase activity in cell-free extracts; vehicle only or no ligand). Conditions: not given.

| fold lower reporter activation than wild-type RID1 | Molecule |
| --- | --- |
| 2 fold | B1 |

Each molecule was assayed against LexA-BCL11A RID1 R317A (UniProt Q9H165) in the same assay as above. Conditions: not given.

| fold lower reporter activity than wild-type RID1 | Molecule |
| --- | --- |
| 5 fold | B2 |

These molecules were tested against LexA-BCL11A RID1 R320A (UniProt Q9H165) in the same assay as above. Conditions: not given.

| fold lower reporter activity than wild-type RID1 | Molecule |
| --- | --- |
| 5 fold | B2 |

What follows are molecules tested against T1, LexA-COUP-TFII-LBD-(144–414) in the same assay as above. Conditions: partners not purified.

| fold reduction of reporter activation due to homodimer formation | Molecule |
| --- | --- |
| ~2.5 fold | B3 |
